This note sets out measurements from publication PMC3142795.

One series deals with IFI16 HINa (UniProt Q16666 189-389). Put plainly: AlphaScreen.
The target in a further series is IFI16 HINab (UniProt Q16666 189-761). Put plainly: AlphaScreen.
Sequence of IFI16 HINab (Q16666 189-761): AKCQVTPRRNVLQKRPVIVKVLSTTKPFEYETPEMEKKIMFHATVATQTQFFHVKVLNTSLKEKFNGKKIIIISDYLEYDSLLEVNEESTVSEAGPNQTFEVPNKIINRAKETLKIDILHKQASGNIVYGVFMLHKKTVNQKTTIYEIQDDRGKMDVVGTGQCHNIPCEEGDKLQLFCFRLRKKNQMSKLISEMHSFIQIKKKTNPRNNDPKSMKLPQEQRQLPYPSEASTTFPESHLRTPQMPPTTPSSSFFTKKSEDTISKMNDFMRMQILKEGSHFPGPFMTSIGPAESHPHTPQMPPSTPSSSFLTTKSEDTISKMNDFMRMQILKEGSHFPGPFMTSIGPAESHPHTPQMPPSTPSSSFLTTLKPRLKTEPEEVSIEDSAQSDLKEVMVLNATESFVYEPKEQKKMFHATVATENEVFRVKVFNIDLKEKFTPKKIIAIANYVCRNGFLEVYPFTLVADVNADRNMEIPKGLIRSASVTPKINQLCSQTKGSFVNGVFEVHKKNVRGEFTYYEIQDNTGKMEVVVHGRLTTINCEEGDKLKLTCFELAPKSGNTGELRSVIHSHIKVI

Sequence of IFI16 HINa (Q16666 189-389): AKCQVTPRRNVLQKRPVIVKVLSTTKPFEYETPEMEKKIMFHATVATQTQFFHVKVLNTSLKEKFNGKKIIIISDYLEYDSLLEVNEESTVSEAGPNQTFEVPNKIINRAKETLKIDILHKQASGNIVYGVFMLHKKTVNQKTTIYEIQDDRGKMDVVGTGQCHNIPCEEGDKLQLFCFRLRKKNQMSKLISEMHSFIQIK

B1: dsVACV 70mer (dsDNA)
DNA 1: CCATCAGAAAGAGGTTTAATATTTTTGTGAGACCATCGAAGAGAGAAAGAGATAAAACTTTTTTACGACT
DNA 2: AGTCGTAAAAAAGTTTTATCTCTTTCTCTCTTCGATGGTCTCACAAAAATATTAAACCTCTTTCTGATGG
In the case of B1, the binding result in the series with IFI16 HINa is “no binding”; with IFI16 HINab, “binds”.
